From patent US4937390A, “Compound useful for the production of 3-deoxy-3-fluoro-myo-inositol” (University of Pittsburgh, priority 1989, dated 1990)

Substrate: O[C@H]1[C@H](O)[C@@H](O)[C@H](O)[C@@H](O)[C@H]1O
Experiment: [3H]myo-inositol uptake by the myo-inositol transporter in PC12 cells
Type: cell-based, rat
Settings: other: Lineweaver-Burke plots, [3H]myo-inositol 25 nM with increasing unlabeled myo-inositol, 37.0 °C
Method: To determine if the effect of the fluoro-myo-inositol analogs might be mediated by the blockade of the myo-inositol transporter, which is responsible for uptake and accumulation of myo-inositol into the cell, the ability of these two compounds to block [^3 H]myo-inositol transport was studied directly.
The uptake of [^3 H]myo-inositol by the myo-inositol transporter was determined as follows:
PC12 cells were gently detached and maintained in a suspension culture in RPMI medium (both myo-inositol and serum free) at 37° C. ]^3 H]myo-inositol was added to this culture at a concentration of 1μCi/ml. Aliquots of this suspension were removed at the indicated time, diluted in 10 volumes of ice-cold PBS containing 10 mM unlabelled myo-inositol to stop the uptake process, centrifuged at 4° C. for 20 minutes at 50 xg. The cell pellet, which contained the transported [^3 H]myo-inositol, was dissolved in dilute NaOH and the radioactivity quantified by liquid scintillation counting.
The […] and Vmax of myoinositol were determined from LineweaverBurke plots
of the uptake of [^3 H]myoinositol (25 nM) in the presence of
increasing concentrations of unlabeled myoinositol in PC12 cells. The Ki
of the two fluoromyo-inositol analogs was determined by conducting the
uptake studies in the presence of a fixed concentration (1 mM) of each

B1: myo-inositol transporter (Rattus norvegicus) (protein)
chain: MRAVLETADIAIVALYFVLVMCIGFFAMWKSNRSTVSGYFLAGRSMTWVAIGASLFVSNIGSEHFIGLAGSGAASGFAVGAWEFNALLLLQLLGWVFIPIYIRSGVYTMPEYLSKRFGGHRIQVYFAALSLLLYIFTKLSVDLYSGALFIQESLGWNLYVSVILLIGMTALLTVTGGLVAVIYTDTLQALLMIIGALTLMVISMMKVGGFEEVKRRYMLASPNVASILLTHNLSNTNSCMVHPKADALKMLRDPTDEDVPWPGFILGQTPASVWYWCADQVIVQRVLAAKNIAHAKGSTLMAGFLKLLPMFIIVVPGMISRILFVDDIACINPEHCMQVCGSRAGCSNIAYPRLVMELVPVGLRGLMMAVMIAALMSDLDSIFNSASTIFTLDVYKLLRNNASSRELMIVGRIFVAFMVVISIAWVPIIVEMQGGQMYLYIQEVADYLTPPVAALFLLAIFWKRCNEQGAFYGGMAGFVLGAIRLILAFTYRAPECDQPDNRPSFIKDIHYMYVATALFWITGLITVIVSLLTPPPTKDQIRTTTFWSKKTVVTKESCSQKDEPYKMQEKSILRCSENSEVVSHTIPNGKSEDSIKGLQPEDVNLLVTCREEGNPVASMGHSGAETPVDAYSNGQAALMGERAREKETESRSRYWKFIDWFCGFKSRSLSKRSLRDSMDEEAVCLQMLEETPRVRVILNIGLFAVCSLGIFMFVYFSL
notes: PC12 cells were gently detached and maintained in a suspension culture; endogenous in cells; host or cells: PC12 cells
Km: 45 µM | Vmax: 2.27 nmol/mg/h
